Assay results reported in US20110015120A1, “Pharmaceutical and cosmetic compositions including lactoferrin, ciclopirox, etidronic acid” (VALETUDO S . r . l ., priority 2009, published 2011).
Where “and” joins values, the source holds several entries; their conditions need not be identical. Equal values may be shown once.

Test system: MALASSEZIA GLOBOSA
Experiment: Inhibition of Malassezia globosa growth, colony count (UFC/ml) on Dixon's Agar
Format: cell-based
Conditions: for dil 10X colony count: 200 μl of suspension diluted 10X on Petri dish; for dil 10X colony count / X50 (calculation made based on the dilution): three replicates; for AVERAGE: average of three replicates; for % reduction of Malassezia globosa cells growth (% increase of antimycotic activity): compared to CICLOPIROXOLAMINE alone; for X50 (calculation made based on the dilution): dil 10X count x50
Procedure: To assess the capacity of the LACTOFERRIN to enhance the antimycotic action of the CIPROPIROXOLAMIN, a suspension of a MALASSEZIA GLOBOSA STRAIN is inoculated on a specific culture medium and the capacity of the compounds to inhibit the mycotic growth is observed, by counting of the UFC/ml.
As first approach, the two compounds are tested at the concentration of 1:500 and, subsequently, diluted in culture medium at 2 decreasing concentrations (10× and 100×) in order to visualize the individual activities. Then in order to evaluate the capacity of the LACTOFERRIN to increase the antimycotic effect of the CICLOPIROXOLAMIN, the same test was carried out on the mix of the two active ingredients at different ratios (1:2 and 1:5).
Each test was performed three times and the incubation times were 1 and 4 hours respectively.
Based on the results obtained, the best dilution for the execution of the tests was the 10× dilution and both the incubation times (1 hour and 4 hours) were taken into consideration since the experimental conditions permitted an accurate count to be carried out of the colonies on the Petri dishes.
The microorganism used is MALASSEZIA GLOBOSA.
The microorganisms were cultured in specific culture medium (Dixon's Agar) until reaching a concentration of approximately […] per ml. Aliquots of 1 ml of this inoculum were then taken to which were added respectively: • Ciclopiroxolamine 1:500 • Lactoferrin 1:500 • Mixture 1:2 Ciclopiroxolamine:lactoferrin • Mixture 1:5 Ciclopiroxolamine:lactoferrin
As positive control, the untreated inoculum was used (MALASSEZIA and diluting liquid), as negative controls the two active ingredients in diluting liquid.
After incubations of 1 hour and 4 hours respectively, aliquots of 200 μl of each suspension were spread on Petri dishes.
For each treatment, the test was carried out three times and for 3 different dilutions (non diluted suspension (TQ), dilution 10× and dilution 100×).
The 54 dishes obtained were then examined, after incubation of 5-6 days and the microbial load of each specimen was calculated (UFC/ml).
The % increase of the antimycotic property corresponds to the % reduction of the growth of Malassezia Globosa

B1: Lactoferrin (protein, UniProt P02788 20-710, looked up)
Lactotransferrin: GRRRSVQWCAVSQPEATKCFQWQRNMRKVRGPPVSCIKRDSPIQCIQAIAENRADAVTLDGGFIYEAGLAPYKLRPVAAEVYGTERQPRTHYYAVAVVKKGGSFQLNELQGLKSCHTGLRRTAGWNVPIGTLRPFLNWTGPPEPIEAAVARFFSASCVPGADKGQFPNLCRLCAGTGENKCAFSSQEPYFSYSGAFKCLRDGAGDVAFIRESTVFEDLSDEAERDEYELLCPDNTRKPVDKFKDCHLARVPSHAVVARSVNGKEDAIWNLLRQAQEKFGKDKSPKFQLFGSPSGQKDLLFKDSAIGFSRVPPRIDSGLYLGSGYFTAIQNLRKSEEEVAARRARVVWCAVGEQELRKCNQWSGLSEGSVTCSSASTTEDCIALVLKGEADAMSLDGGYVYTAGKCGLVPVLAENYKSQQSSDPDPNCVDRPVEGYLAVAVVRRSDTSLTWNSVKGKKSCHTAVDRTAGWNIPMGLLFNQTGSCKFDEYFSQSCAPGSDPRSNLCALCIGDEQGENKCVPNSNERYYGYTGAFRCLAENAGDVAFVKDVTVLQNTDGNNNEAWAKDLKLADFALLCLDGKRKPVTEARSCHLAMAPNHAVVSRMDKVERLKQVLLHQQAKFGRNGSDCPDKFCLFQSETKNLLFNDNTECLARLHGKTTYEKYLGPQYVAGITNLKKCSTSPLLEACEFLRK
How did the “Log (AVERAGE)” value (period of incubation 1 hour) turn out when B1 was run?
The value was 4.13.

And the “dil 10X colony count” value (period of incubation 1 hour)?
The value was 303 and 256 and 250.

What about the AVERAGE (period of incubation 1 hour) of the same molecule?
The AVERAGE was 13483.33 UFC/ml.

And the “% reduction of Malassezia globosa cells growth (% increase of antimycotic activity)” value (period of incubation 1 hour)?
The value was −39.4%.

And the “X50 (calculation made based on the dilution)” value (period of incubation 1 hour)?
The value was 15150 UFC/ml and 12800 UFC/ml and 12500 UFC/ml.

What about the “Log (AVERAGE)” value (period of incubation 4 hour) of the same molecule?
The value was 4.109.

And the “dil 10X colony count” value (period of incubation 4 hour)?
Its value is 340 and 232 and 200.

And the AVERAGE (period of incubation 4 hour)?
Its AVERAGE is 12866.67 UFC/ml.

And the “% reduction of Malassezia globosa cells growth (% increase of antimycotic activity)” value (period of incubation 4 hour)?
The value was −695.8%.

What about the “X50 (calculation made based on the dilution)” value (period of incubation 4 hour) of the same molecule?
The value was 17000 UFC/ml and 11600 UFC/ml and 10000 UFC/ml.
